Test results as given in patent US20030186281A1, “Modified tetracycline repressor protein compositions and methods of use” (priority 2001, published 2003).

System: tet operator sequence
Experiment: β-galactosidase activity of a tetracycline-regulated promoter in transformed E. coli with revTetR, in the presence and absence of anhydrotetracycline (atc)
Assay type: cell-based, Escherichia coli
Conditions: for β-Galactosidase Activity, Cultured Without ATC: RevTetR isolate cultured in the absence of anhydrotetracycline (ATC); for β-Galactosidase Activity, Cultured With ATC: RevTetR isolate cultured in the presence of anhydrotetracycline (ATC)
Experimental: The relative activity of revTetR repressors was determined at 28° C. and 37° C. for each clone by measuring β-galactosidase activity of a tetracycline-regulated promoter in transformed Escherichia coli in the presence and absence of the tetracycline analog, anhydrotetracycline (atc). The relative β-galactosidase activity was measured in standard Miller units and is presented as the percent of maximal expression as measured in the absence of Tet repressor. […] With respect to each mutant, as well as the wild-type controls, FIG. 2 provides two horizontal bars; the upper horizontal bar represents the level of β-galactosidase activity in the absence of anhydrotetracycline (−atc) while the lower horizontal bar represents the level of β-galactosidase activity in the presence of anhydrotetracycline (+atc).
The pool of mutated Tet repressors was cloned into plasmid pWH1411 (Baumeister et al., 1992, Proteins: Struct. Funct. Genet. 14: 168-77), which carries a TetR(B) gene, to provide a TetR(BD) chimera that included, as the amino-terminal portion, amino acid residues 1 to 50 of the TetR(B) gene and, as the carboxyl-terminal portion, amino acid residues 51 to 208 of the TetR(D) gene. The resulting plasmid pool was screened in a genetic assay which positively selects for a functional interaction between a Tet repressor and its cognate operator using E. coli strain WH207(λWH25) (the construction of this strain is described in detail in Wissmann et al., (1991) Genetics 128: 225-32). In this E. coli strain, tet operators direct the expression of divergently arranged β-galactosidase (lacZ) and Lac repressor (lacI) genes and the lac regulatory region directs the expression of a galactokinase (galK) gene on plasmid pWH414. Binding of Tet repressors to tet operators turns off transcription of the lacI and lacZ genes. The absence of Lac repressor allows for expression of the galK gene, which enables the E. coli strain to use galactose as a sole carbon source, which serves as one marker. The lacZ^− phenotype serves as a second marker. Thus, bacteria containing Tet repressors which bind to tet operators, have a Gal^+, lacZ^− phenotype. Bacteria containing wild-type Tet repressors have a Gal^+, lacZ^− phenotype in the absence of tetracycline. Modified “reverse” Tet repressors (revTetR) were selected based upon a Gal^+, lacZ^− phenotype in the presence of tetracycline.
The ability of each revTetR clone to bind to its cognate tet operator sequence and regulate transcription in a prokaryotic organism, Escherichia coli, in the presence and absence of a tetracycline analog (anhydrotetracycline, atc) was determined (Table 3, FIG. 2). The relative ratios of non-repressed to repressed levels of transcription for the 15 clones range from about 1.4-fold to about 50-fold at 28° C. and from about 1.3-fold to 40-fold at 37° C. For example, clone 4b comprising an amino acid substitution of glutamic acid for glycine at position 96 (e.g., SEQ ID NO. 24) repressed transcription 19-fold at 37° C. but to a less extent at 28° C. (5.7-fold, Table 3). Furthermore, clones 14, 5a and 7 comprising the arginine for glycine substitution at position 96 and further comprising a substitution or substitutions of serine for threonine at position 103 and valine for glutamic acid at position 114; leucine for proline at position 159; or glutamine to histidine at position 188, respectively, have pronouncedly different activities.
wherein each underlined base was present in approximately 85% of the oligonucleotides, while the remaining approximately 15% of the oligonucleotides contained one of the other three, non-wild type bases at that position. Similar mutagenic, partially randomized oligonucleotides were prepared for mutagenesis of the coding regions for amino acids 14-25 and 93-102. It was predicted that, according to a binomial distribution, each oligonucleotide would contain three to four mutations. […]

| Molecule | β-Galactosidase Activity, Cultured Without ATC | β-Galactosidase Activity, Cultured With ATC |
| --- | --- | --- |
| TetRrevAF7/1: revTetR(BD) Y93C G96R K98N (protein, Modified tetracycline repressor, revTetR(BD) Y93C G96R K98N) MSRLDKSKVINSALELLNEVGIEGLTTRKLAQKLGVEQPTLYWHVKNKRALLDALAVEILARHHDYSLPAAGESWQSFLRNNAMSFRRALLRCRDRANVHLGTRPDEKQYDTVETQLRFMTENGFSLRDGLYAISAVSHFTLGAVLEQQEHTAALTDRPAAPDENLPPLLREALQIMDSDDGEQAFLHGLESLIRGFEVQLTALLQIV | 89.3536 | 1.3792 |
| TetRrevAF2/16: revTetR(BD) E19V Y93C D95Y A97T K98N V99L L101L (protein, Modified tetracycline repressor, revTetR(BD) E19V Y93C D95Y A97T K98N V99L L101L) MSRLDKSKVINSALELLNVVGIEGLTTRKLAQKLGVEQPTLYWHVKNKRALLDALAVEILARHHDYSLPAAGESWQSFLRNNAMSFRRALLRCRYGTNLHLGTRPDEKQYDTVETQLRFMTENGFSLRDGLYAISAVSHFTLGAVLEQQEHTAALTDRPAAPDENLPPLLREALQIMDSDDGEQAFLHGLESLIRGFEVQLTALLQIV | 90.6438 | 2.622 |
| TetRrevAF7/2: revTetR(BD) L14V E15V E23D K48K G96L G102A (protein, Modified tetracycline repressor, revTetR(BD) L14V E15V E23D K48K G96L G102A) MSRLDKSKVINSAVVLLNEVGIDGLTTRKLAQKLGVEQPTLYWHVKNKRALLDALAVEILARHHDYSLPAAGESWQSFLRNNAMSFRRALLRYRDLAKVHLATRPDEKQYDTVETQLRFMTENGFSLRDGLYAISAVSHFTLGAVLEQQEHTAALTDRPAAPDENLPPLLREALQIMDSDDGEQAFLHGLESLIRGFEVQLTALLQIV | 58.8637 | 3.7321 |
| TetRrevAF2/14: revTetR(BD) L14L E15A L16L L17V N18N; V20V G96V (protein, Modified tetracycline repressor, revTetR(BD) L14L E15A L16L L17V N18N; V20V G96V) MSRLDKSKVINSALALVNEVGIEGLTTRKLAQKLGVEQPTLYWHVKNKRALLDALAVEILARHHDYSLPAAGESWQSFLRNNAMSFRRALLRYRDVAKVHLGTRPDEKQYDTVETQLRFMTENGFSLRDGLYAISAVSHFTLGAVLEQQEHTAALTDRPAAPDENLPPLLREALQIMDSDDGEQAFLHGLESLIRGFEVQLTALLQIV | 90.5688 | 1.239 |
| TetRrevAD3/6: revTetR(BD) V20G A56P I59L R62R (protein, Modified tetracycline repressor, revTetR(BD) V20G A56P I59L R62R) MSRLDKSKVINSALELLNEGGIEGLTTRKLAQKLGVEQPTLYWHVKNKRALLDALPVELLARHHDYSLPAAGESWQSFLRNNAMSFRRALLRYRDGAKVHLGTRPDEKQYDTVETQLRFMTENGFSLRDGLYAISAVSHFTLGAVLEQQEHTAALTDRPAAPDENLPPLLREALQIMDSDDGEQAFLHGLESLIRGFEVQLTALLQIV | 93.0552 | 1.6494 |
| TetRrevAD3/5: revTetR(BD) L17L N18K E19V I22T 53Y A54S (protein, Modified tetracycline repressor, revTetR(BD) L17L N18K E19V I22T 53Y A54S) MSRLDKSKVINSALELLKVVGTEGLTTRKLAQKLGVEQPTLYWHVKNKRALLYSLAVEILARHHDYSLPAAGESWQSFLRNNAMSFRRALLRYRDGAKVHLGTRPDEKQYDTVETQLRFMTENGFSLRDGLYAISAVSHFTLGAVLEQQEHTAALTDRPAAPDENLPPLLREALQIMDSDDGEQAFLHGLESLIRGFEVQLTALLQIV | 89.8129 | 1.1481 |
| TetRrevAD3/8: revTetR(BD) L16L A56A V57E E58L I59N L60A (protein, Modified tetracycline repressor, revTetR(BD) L16L A56A V57E E58L I59N L60A) MSRLDKSKVINSALELLNEVGIEGLTTRKLAQKLGVEQPTLYWHVKNKRALLDALAELNVARHHDYSLPAAGESWQSFLRNNAMSFRRALLRYRDGAKVHLGTRPDEKQYDTVETQLRFMTENGFSLRDGLYAISAVSHFTLGAVLEQQEHTAALTDRPAAPDENLPPLLREALQIMDSDDGEQAFLHGLESLIRGFEVQLTALLQIV | 65.0174 | 1.9046 |
| TetRrevAF2/15: revTetR(BD) V20G I22N R49Q A50T (protein, Modified tetracycline repressor, revTetR(BD) V20G I22N R49Q A50T) MSRLDKSKVINSALELLNEGGNEGLTTRKLAQKLGVEQPTLYWHVKNKQTLLDALAVEILARHHDYSLPAAGESWQSFLRNNAMSFRRALLRYRDGAKVHLGTRPDEKQYDTVETQLRFMTENGFSLRDGLYAISAVSHFTLGAVLEQQEHTAALTDRPAAPDENLPPLLREALQIMDSDDGEQAFLHGLESLIRGFEVQLTALLQIV | 82.5755 | 2.828 |
| TetRrevAF3/5: revTetR(BD) V20F G21R R49S (protein, Modified tetracycline repressor, revTetR(BD) V20F G21R R49S) MSRLDKSKVINSALELLNEFRIEGLTTRKLAQKLGVEQPTLYWHVKNKSTLLDALAVEILARHHDYSLPAAGESWQSFLRNNAMSFRRALLRYRDGAKVHLGTRPDEKQYDTVETQLRFMTENGFSLRDGLYAISAVSHFTLGAVLEQQEHTAALTDRPAAPDENLPPLLREALQIMDSDDGEQAFLHGLESLIRGFEVQLTALLQIV | 101.824 | 4.696 |
| TetRrevAtc4-11: revTetR(BD) L55L A56P R62S (protein, Modified tetracycline repressor, revTetR(BD) L55L A56P R62S) MSRLDKSKVINSALELLNEVGIEGLTTRKLAQKLGVEQPTLYWHVKNKRALLDALPVEILASHHDYSLPAAGESWQSFLRNNAMSFRRALLRYRDGAKVHLGTRPDEKQYDTVETQLRFMTENGFSLRDGLYAISAVSHFTLGAVLEQQEHTAALTDRPAAPDENLPPLLREALQIMDSDDGEQAFLHGLESLIRGFEVQLTALLQIV | 103.132 | 17.479 |
| TetRrevAD3/9: revTetR(BD) E15Q L17L L55M I59R (protein, Modified tetracycline repressor, revTetR(BD) E15Q L17L L55M I59R) MSRLDKSKVINSALQLLNEVGIEGLTTRKLAQKLGVEQPTLYWHVKNKRALLDAMAVERLARHHDYSLPAAGESWQSFLRNNAMSFRRALLRYRDGAKVHLGTRPDEKQYDTVETQLRFMTENGFSLRDGLYAISAVSHFTLGAVLEQQEHTAALTDRPAAPDENLPPLLREALQIMDSDDGEQAFLHGLESLIRGFEVQLTALLQIV | 60.2932 | 4.2427 |
| TetRrevAD3/7: revTetR(BD) L17M E19D L52L D53Y A54A A56E (protein, Modified tetracycline repressor, revTetR(BD) L17M E19D L52L D53Y A54A A56E) MSRLDKSKVINSALELMNDVGIEGLTTRKLAQKLGVEQPTLYWHVKNKRALLYALEVEILARHHDYSLPAAGESWQSFLRNNAMSFRRALLRYRDGAKVHLGTRPDEKQYDTVETQLRFMTENGFSLRDGLYAISAVSHFTLGAVLEQQEHTAALTDRPAAPDENLPPLLREALQIMDSDDGEQAFLHGLESLIRGFEVQLTALLQIV | 73.4537 | 2.4531 |
